Experimental data from patent US20260001928A1 (CORTERIA PHARMACEUTICALS, priority 2022, published 2026).
*1 amine or outer side, *2 acyl side, *3 side chain or, on linkers, in order; H or OH if unused. Where no end group is shown, it is not given here. Side-chain parts run from the residue outwards. [ ]: non-standard residue; d: D form. The star is where a group is joined. C16 diacid = O=C(O)CCCCCCCCCCCCCCC(=O)*; γGlu = O=C(O)[C@H](CCC(=O)[*:2])N[*:1]

T1: CRF1R receptor (UniProt P34998 24-415, limits assumed)
T1 sequence (looked up): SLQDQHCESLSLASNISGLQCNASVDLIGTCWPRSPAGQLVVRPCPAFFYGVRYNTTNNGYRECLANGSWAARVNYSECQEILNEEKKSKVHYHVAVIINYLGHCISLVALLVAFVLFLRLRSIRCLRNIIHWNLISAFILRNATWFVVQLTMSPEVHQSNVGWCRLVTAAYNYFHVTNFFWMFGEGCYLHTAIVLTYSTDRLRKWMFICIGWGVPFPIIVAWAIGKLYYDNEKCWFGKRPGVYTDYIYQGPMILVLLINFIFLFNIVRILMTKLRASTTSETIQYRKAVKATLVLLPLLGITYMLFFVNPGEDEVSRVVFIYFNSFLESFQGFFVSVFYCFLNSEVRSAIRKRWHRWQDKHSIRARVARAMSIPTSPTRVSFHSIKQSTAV


Molecular target: T1, CRF1R receptor
Assay: cell-based or functional assay

| Emax (% I) [%] | EC50 [µM] | Binder |
| --- | --- | --- |
| 0 | – | VLSLD[dV]PIKLK([γGlu-C16 diacid])KILLEQEKQKKQREQAETNKQILAQV-NH2 (N-terminus assumed; SMILES CC[C@H](C)[C@H](NC(=O)[C@H](CCC(N)=O)NC(=O)[C@H](CCCCN)NC(=O)[C@H](CC(N)=O)NC(=O)[C@@H](NC(=O)[C@H](CCC(=O)O)NC(=O)[C@H](C)NC(=O)[C@H](CCC(N)=O)NC(=O)[C@H](CCC(=O)O)NC(=O)[C@H](CCCNC(=N)N)NC(=O)[C@H](CCC(N)=O)NC(=O)[C@H](CCCCN)NC(=O)[C@H](CCCCN)NC(=O)[C@H](CCC(N)=O)NC(=O)[C@H](CCCCN)NC(=O)[C@H](CCC(=O)O)NC(=O)[C@H](CCC(N)=O)NC(=O)[C@H](CCC(=O)O)NC(=O)[C@H](CC(C)C)NC(=O)[C@H](CC(C)C)NC(=O)[C@@H](NC(=O)[C@H](CCCCN)NC(=O)[C@H](CCCCNC(=O)CC[C@H](NC(=O)CCCCCCCCCCCCCCC(=O)O)C(=O)O)NC(=O)[C@H](CC(C)C)NC(=O)[C@H](CCCCN)NC(=O)[C@@H](NC(=O)[C@@H]1CCCN1C(=O)[C@H](NC(=O)[C@H](CC(=O)O)NC(=O)[C@H](CC(C)C)NC(=O)[C@H](CO)NC(=O)[C@H](CC(C)C)NC(=O)[C@@H](N)C(C)C)C(C)C)[C@@H](C)CC)[C@@H](C)CC)[C@@H](C)O)C(=O)N[C@@H](CC(C)C)C(=O)N[C@@H](C)C(=O)N[C@@H](CCC(N)=O)C(=O)N[C@H](C(N)=O)C(C)C) [SEQ ID NO 34] |
| 24 | > 0.25 | IVLSLD[dV]PIKLK([γGlu-C16 diacid])QILLKQERQKKQREQAEKNVQILEQV-NH2 (N-terminus assumed; SMILES CC[C@H](C)[C@H](N)C(=O)N[C@H](C(=O)N[C@@H](CC(C)C)C(=O)N[C@@H](CO)C(=O)N[C@@H](CC(C)C)C(=O)N[C@@H](CC(=O)O)C(=O)N[C@@H](C(=O)N1CCC[C@H]1C(=O)N[C@H](C(=O)N[C@@H](CCCCN)C(=O)N[C@@H](CC(C)C)C(=O)N[C@@H](CCCCNC(=O)CC[C@H](NC(=O)CCCCCCCCCCCCCCC(=O)O)C(=O)O)C(=O)N[C@@H](CCC(N)=O)C(=O)N[C@H](C(=O)N[C@@H](CC(C)C)C(=O)N[C@@H](CC(C)C)C(=O)N[C@@H](CCCCN)C(=O)N[C@@H](CCC(N)=O)C(=O)N[C@@H](CCC(=O)O)C(=O)N[C@@H](CCCNC(=N)N)C(=O)N[C@@H](CCC(N)=O)C(=O)N[C@@H](CCCCN)C(=O)N[C@@H](CCCCN)C(=O)N[C@@H](CCC(N)=O)C(=O)N[C@@H](CCCNC(=N)N)C(=O)N[C@@H](CCC(=O)O)C(=O)N[C@@H](CCC(N)=O)C(=O)N[C@@H](C)C(=O)N[C@@H](CCC(=O)O)C(=O)N[C@@H](CCCCN)C(=O)N[C@@H](CC(N)=O)C(=O)N[C@H](C(=O)N[C@@H](CCC(N)=O)C(=O)N[C@H](C(=O)N[C@@H](CC(C)C)C(=O)N[C@@H](CCC(=O)O)C(=O)N[C@@H](CCC(N)=O)C(=O)N[C@H](C(N)=O)C(C)C)[C@@H](C)CC)C(C)C)[C@@H](C)CC)[C@@H](C)CC)C(C)C)C(C)C) [SEQ ID NO 13] |
| 24 | > 0.25 | IVLSLD[dV]PIKLK([γGlu-C16 diacid])QILLKQERQKKQREQAEKNTQILEQV-NH2 (N-terminus assumed; SMILES CC[C@H](C)[C@H](N)C(=O)N[C@H](C(=O)N[C@@H](CC(C)C)C(=O)N[C@@H](CO)C(=O)N[C@@H](CC(C)C)C(=O)N[C@@H](CC(=O)O)C(=O)N[C@@H](C(=O)N1CCC[C@H]1C(=O)N[C@H](C(=O)N[C@@H](CCCCN)C(=O)N[C@@H](CC(C)C)C(=O)N[C@@H](CCCCNC(=O)CC[C@H](NC(=O)CCCCCCCCCCCCCCC(=O)O)C(=O)O)C(=O)N[C@@H](CCC(N)=O)C(=O)N[C@H](C(=O)N[C@@H](CC(C)C)C(=O)N[C@@H](CC(C)C)C(=O)N[C@@H](CCCCN)C(=O)N[C@@H](CCC(N)=O)C(=O)N[C@@H](CCC(=O)O)C(=O)N[C@@H](CCCNC(=N)N)C(=O)N[C@@H](CCC(N)=O)C(=O)N[C@@H](CCCCN)C(=O)N[C@@H](CCCCN)C(=O)N[C@@H](CCC(N)=O)C(=O)N[C@@H](CCCNC(=N)N)C(=O)N[C@@H](CCC(=O)O)C(=O)N[C@@H](CCC(N)=O)C(=O)N[C@@H](C)C(=O)N[C@@H](CCC(=O)O)C(=O)N[C@@H](CCCCN)C(=O)N[C@@H](CC(N)=O)C(=O)N[C@H](C(=O)N[C@@H](CCC(N)=O)C(=O)N[C@H](C(=O)N[C@@H](CC(C)C)C(=O)N[C@@H](CCC(=O)O)C(=O)N[C@@H](CCC(N)=O)C(=O)N[C@H](C(N)=O)C(C)C)[C@@H](C)CC)[C@@H](C)O)[C@@H](C)CC)[C@@H](C)CC)C(C)C)C(C)C) [SEQ ID NO 14] |
| 22 | 0.1 | IVLSLD[dV]PIKLK([γGlu-γGlu-C16 diacid])QILLKQERQKKQREQAEKNKQILEQV-NH2 (N-terminus assumed; SMILES CC[C@H](C)[C@H](N)C(=O)N[C@H](C(=O)N[C@@H](CC(C)C)C(=O)N[C@@H](CO)C(=O)N[C@@H](CC(C)C)C(=O)N[C@@H](CC(=O)O)C(=O)N[C@@H](C(=O)N1CCC[C@H]1C(=O)N[C@H](C(=O)N[C@@H](CCCCN)C(=O)N[C@@H](CC(C)C)C(=O)N[C@@H](CCCCNC(=O)CC[C@H](NC(=O)CC[C@H](NC(=O)CCCCCCCCCCCCCCC(=O)O)C(=O)O)C(=O)O)C(=O)N[C@@H](CCC(N)=O)C(=O)N[C@H](C(=O)N[C@@H](CC(C)C)C(=O)N[C@@H](CC(C)C)C(=O)N[C@@H](CCCCN)C(=O)N[C@@H](CCC(N)=O)C(=O)N[C@@H](CCC(=O)O)C(=O)N[C@@H](CCCNC(=N)N)C(=O)N[C@@H](CCC(N)=O)C(=O)N[C@@H](CCCCN)C(=O)N[C@@H](CCCCN)C(=O)N[C@@H](CCC(N)=O)C(=O)N[C@@H](CCCNC(=N)N)C(=O)N[C@@H](CCC(=O)O)C(=O)N[C@@H](CCC(N)=O)C(=O)N[C@@H](C)C(=O)N[C@@H](CCC(=O)O)C(=O)N[C@@H](CCCCN)C(=O)N[C@@H](CC(N)=O)C(=O)N[C@@H](CCCCN)C(=O)N[C@@H](CCC(N)=O)C(=O)N[C@H](C(=O)N[C@@H](CC(C)C)C(=O)N[C@@H](CCC(=O)O)C(=O)N[C@@H](CCC(N)=O)C(=O)N[C@H](C(N)=O)C(C)C)[C@@H](C)CC)[C@@H](C)CC)[C@@H](C)CC)C(C)C)C(C)C) [SEQ ID NO 147] |
